Experimental data taken from the DeepSol protein solubility set.

Assay: soluble on expression in E. coli; label from the status in PepcDB or PDB records

| Sequence | soluble on expression in E. coli |
| --- | --- |
| MNNRDQLFKAPPFENHSPLTWYQAASQLPNFIRDDAQAAAIEHLDRLWTELMMFKRKRNRFLGRSLRSPQVPKGLYFYGGVGRGKSFLMDAFFGCLPYRRKRRVHFHAFMAEIHRRLKALKSESNPLKSVAAEITKETRVLCFDEFHVSDIADAMILGRLLENLLNEGVVLVATSNYAPSELYPQGQNRSGFLPTIALIESSLTVLNVDGGEDYRLRTLRPAEIFFTPANEENEAKLAKLFKEMTGITDLNPGISTIHGREIPHKAESGRTIWFDFRALCFSPRSQSDYLYLAEHYEMVFISGLEQLSPQEKAEARRLTWLIDVLYDFRVKLCATGAVDVNHIYTEGDFAEEFTRTASRMVEMQSEVYLEQPHLTLSPKASGGLEHHHHHH | soluble |
| MRAPRWLWLVILLSGSAAADWREVLPNAQVVGGGELTLFGFRVYTARLLSPAKPFVADAPMALELTYHRNIDREDLVDASIDEIKRISGARVTTEQLAAWREQMNQSFVDVQPGMKITGVYLPGREARFYVGDKLQHVVPDSQFAKAFFSIWLDPKTRNPELREQLLGSTGS | not soluble |
| MTLKGMSYVMCTGSFKLEKEVAETQHGTVLVQVKYEGTDAPCKIPFSTQDEKGATQNGRLITANPIVTDKEKPVNIEAEPPFGESYIVVGAGEKALKLSWFKKGSSIG | soluble |
| MGSDKIHHHHHHSCDGMDATYKEFIEEGPIVYIGKVDSLKAYAGRNRAMLEWQKLLDPRAKTAKIFWENRTRSTELQLTDKAGLTQVIVKDLAEGSYVFEVCTYDTHGNSSIMSEVPCTVYGDVYEKLLFNTKVKTAVLKNDVLTITFAASLEPTFFGSEITYTSIDGGDKTVILKAPETQIKIDDFAGDRIIYRSVYLPEETAIDYFYSESDEFEIK | not soluble |
| MGSDKIHHHHHHMKFTPELESGVLIKRYKRFLADIMLPNGQEITIHCPNTGSMKNCLFPGEKVWFSTSDNPKRKYAHTWELMQTDQQHYIGINTGRANALAEEAINRQVITELLGYEHLKREVKYGSENSRIDILLTSQNRPECYIEVKSCTLLEDQMGYFPDAVTTRGQKHLRELIHMVELGHRAVLLFVVQHSAITSVKPARHIDPHYADLLEQAVANGVEVLAYKTALSPQGSLITSACKVML | not soluble |
| MEDFKSGDLILGYYKVLEKLGEGNFGKVYKVEALKGRYKGKVFALKVASNPYSVHYLWKEAQTLILFHHQNIVSLQSYLYKKDKKELYLIYEYMDFGTLKDYVEKKGKLSPEEALKVLRHVVNALEYLHSRGYIHSDLKPENVFGKRVLGGVLWKLGDFSLVRIRGDVSIIDVKGTIGFIAPEIFRGEIHRSSDIYSLGCLTLYMLTGKVPFEGKDFKERKEKNKRGEVEIPEEIPGKLKDLLERMLEVDYKRRFRTARELKEYMVKEGLI | soluble |
| MKTSIIILTCNNLRYSRRCIESIKKYTEKEAYEIIVVDNNSNDGTRNWLSKQKAIKKIYNNVNVGFPRGCNMGIKVACGSEVLLLNNDVVVTHNWLNNLRNCLYSSYEIGAVGPISNNCSNGQKINVRYDSIEDMHRFSKKYNISNKKKWTEVKRLIGFCFLIKRNVIRKVGLFDERFTPGNFEDDDYCIRMRKIGFRLMLCKDTFVHHYGSVSFKNTQYLKLLEVNKSKLEKKWGKSYDKLVLEHHHHHH | not soluble |
| MGSDKIHHHHHHENLYFQGMRDHVEIGIGREARRTYSLDDISVVSSRRTRSSKDVDTTWHIDAYKFDLPFMNHPSDALASPEFVIEMGKQGGLGVINAEGLWGRHADLDEAIAKVIAAYEEGDQAAATRTLQELHAAPLDTELLSERIAQVRDSGEIVAVRVSPQNVREIAPIVIKAGADLLVIQGTLISAEHVNTGGEALNLKEFIGSLDVPVIAGGVNDYTTALHMMRTGAVGIIVGGGENTNSLALGMEVSMATAIADVAAARRDYLDETGGRYVHIIADGSIENSGDVVKAIACGADAVVLGSPLARAEEAAGKGYFWPAVAAHPRFPRGVVTESVDLDEAAPSLEQILHGPSTMPWGVENFEGGLKRALAKCGYTDLKSFQKVSLHVN | soluble |
| MTEPGERRRRTTSTATRERGVRDARDAARRAADALSELIRHHLEGVSAVCRGEDGGWIVNVDVLEVARIPDTTSLLATYEVELDPAGDLLQYRRIARYRRGAQDQLEHHHHHH | not soluble |
| KGTSENKSTTATDTVQAEKPQSGTIHLTRAEFLKKIADYENHSKEWKYLGDKPAIVDFYADWCGPCKMVAPILEELSKEYAGKIYIYKVNVDKEPELARDFGIQGIPTIWFVPMKGEPQVNMGALSKEQLKGYIDKVLLKQ | soluble |
| MIITDDHMHLYNHLKLKALEQFRDAGGTHVFLVNLLCHHYGIRPTSGKDFREVFERHLSLVEKANKIVKAYAVLGVHPAEITVIGDRIGHEKAAEMMKEALEIAGKYVEEGKAVALKSGRPHYPVSRHVWQLSNDVLRHAFEVAKDVGCAIQLHTESYTKEGMLEIAKMADEVGLKREKVVKHFSPPLIKEFEEIGIFPSVLAGNNNVLKAAEQGNRFTVETDYIDDRKRPGAVLGPKTVPRKVKELIELGYEDIAYKICVENVEKVYGV | not soluble |
| MGSDKIHHHHHHMTTSTGKINLLGLTQPEMEQFFDSIGEKRFRAGQVMKWIHHFGVSDFAAMTNVGKVLREKLEAVAEIRPPEVVSEDISADGTRKWVIRVASGSCVETVYIPTDDRGTLCVSSQAGCALDCSFCSTGKQGFNSNLTAAEVIGQVWLANKSFGTVPAKVDRAITNVVMMGMGEPLLNFDNVIAAMKIMMDDLGYGISKRRVTLSTSGVVPMIDELAKHIDVSLALSLHAPNDELRNKLVPINKKYPLKVLLESCMGYMSTLGGKRVLTVEYTLLKDVNDQPEHAAQMIELLRDVPCKINLIPFNPFPHSGYERPSNNAIRRFQDLLHHGGFNVTTRTTRGDDIDAACGQLVGQVNDRTRRSERYIAVRQLSADVELPDSAASH | not soluble |
| MSLGESRKHIDYKKGTINLNGVEYPLNDTNFPTINPENPLELLEEEAELLDKLQASFLGSEKLQKHMQLLFAKGGMYLKYNSNLLFHACIPMEPNGEFSKLYVEDGYYKGKALMDKIDNIVRQAYYDRKNVEVNKKHRDFIWYLWAGRLSPLFGKDVMKTFERYFIDDKSTHKEIKNPYHKLINDEKICDKIFEEFGLNPRTSHIINGHIPVKVKEGESPIKANGKLLIIDGGFSRAYQSTTGIAGYTLTYNSYGMKLASHLKFISKEAAIKDGTDMISSHIIVETKSKRMKVKDTDIGKNIQNQINDLKKLLKAYRIGLIKSNEGHHHHHH | not soluble |
| MGSDKIHHHHHHMNEADVTKFVNNARKTLTDAQLLCSSANLRIVDIKKKLSSWQLSISKLNFLIVGLRQQGKFLYTILKEGIGTKLIQKQWNQAVLVVLVDEMKYWQYEITSKVQRLDGIVNELSISEKDDTDPSKLGDYISRDNVNLLNDKLKEVPVIERQIENIKLQYENMVRKVNKELIDTKLTDVTQKFQSKFGIDNLMETNVAEQFSRELTDLEKDLAEIMNSLTQHFDKTLLLQDKKIDNDEREELFKVVQGDDKELYNIFKTLHEVIDDVDKTILNLGQFLQAKIKEKTELHSEVSEIINDFNRNLEYLLIFKDISNLIDSFKNSCTQDIQTTKELCEFYDNFEESYGNLVLEAKRRKDVANRMKTILKDCEKQLQNLDAQDQEERQNFIAENGTYLPETIWPGKIDDFSSLYTLNYNVKNP | not soluble |
| MPRALNDRSSALTAQNLIALPERFGCPVWAYDGDIIAERINQLRHFDVIRFAQKACSNIHILRLMREQGVKVDSVSLGEIERALHAGYQPGQEPAEIVFTADLLDQATLLRVTELNIPVNAGSIDMLDQLGQQAPGHPVWLRVNPGFGHGHSQKTNTGGENSKHGIWHEELPRALKKIEHYGLTLVGIHMHIGSGVDYQHLEQVCDAMVQQVITLGHDISAISAGGGLSIPYQFGDDVIDTEHYYGLWNSARERIAAHLGHPVSLEIEPGRFLVAESGVLIAQVRAVKDMGRRHYVLVDAGFNDLMRPAMYGSYHHISLLPADGRDLTSAPLIDTVVAGPLCESGDVFTQQEGGGVETLALPAAVIGDYLVFHDTGAYGASMSSNYNSRPLLPEVLFEKGQPRLIRRRQTIEELIDLERV | not soluble |
| NAKKPTMQLSDSGVDILIGSASYEGGELVLPTSITNQSSQSVIQVEVEVQVFDMSGKQLAKEKVTVWQSIKRMADTYLRPQQAEQGKSIKLAVPQSQQYQFSAKVLEVKTR | not soluble |
| MASYLPSEWQDDLKMNGLMSVMKERHVNKVDYDRKLRFWTDAIYGSCIGEKNATFNLLELKKRFRRNDRVPASLDVILDHLKKKGDVITIGEWRDRHSSWVGWGFSKTKGWMFGASSDSEQLLHLPTIKKLGQEILDIYNEELRSEIDCTGEVVTYNEMFDRASNIISKIETFDIVLEHLNDIGELTVGTTRNGEKVLKFKDNGSEDPVKFTEADASVVDIRKAMNKLDREIQQLEQKVKKYDEQCRACLRTGDKGRAQNFLRQRKRAEKDIADKDVQYQKLLTMLHQISSAKNNKDVLQAYKSGTAAFKATLARQGLSPDKIHETMDDVVNSMDEYKEIEEAISSPFVNANGFNDADLEQELEDLISDNKKNESVHLPEAPTNRFGLFDKEVTPEEDQLEKRLARLRQAI | not soluble |
| MGSDKIHHHHHHMEEARIKALISLLDDEDVEVISQVEKELLAQGGSMIPFLEKEWEENFNPIVQKRIEDLVHLLQFVLLEDRLSQWKNKGGTDLMEGLWLICTYQYPDLEFNTIKSAMEQIYYEVWLDMKPDMLPLEQVKLVMNNVLFNKLKFSANTKNFHSPANSMISQVLESKKGNPISLCCIYMMVAQKLKLPVYGVNLPTLFILTYKSDDTQFYISPFHKGLIFTKEDIDNYLLQLNLAPIDLYYQPCNNIDIVARVLRNLIVSFEKLSEMERVDDVKKMLHFLTGEKY | not soluble |
| GPGSMSATEAVVEPKAPDVCTEANERPPTESGVAAPVKRLFDLLQEDSKERVVRLLTAFRELTLLEQESLAQEMGVTLPKEEKWRAPCPLIARQPSGPSLEVRRRDPSYVALCPSVSSALRELGSKEAARRLPDADLRKLVEGALGEDGVYLTVPESDGEGCAAASERVGVVDDGKPPLLVRSRCYQALRLARDEEIETDAQYTRPRVLNVTGIPLEESDVWEWFNLLDVARNGTVGVDAFLTSVRELDRGFGTSSKVQEAFEDESRSLSVDGQLSFDKFAYLVTRFSRY | soluble |
| SIKDVHRCFVIACIPGKKPYTLALSDFISATAACFKSGIPLKTLKESLENMKETYFRPLKVEEFELLRTWLTLVYKTLKEVLFPLTENKRGICDTDDSIYDEFVKSIVTAIREGYSMEKIRLEQVVTNTKTQPRTEFESALLSQSTRIVVQTVQIAKEFSSEQ | soluble |
| IPLFSDAEIKPNHATRTTQVGMPLAISVDDYSQLAFVLTQSGEIQYLSMDAPDKPAIYTQQLATNPVSFSQSAPGLGWYGLVDDQGLAHIFKPEFNATLRENTRPPEVVALSTDMNLTLTDAQDPVTQFVFSASTQTPTIVWQTRSGKVKARWQEKSALGVAPTTIDFSFSAGFDAPQQMLLTPDGETLYLRDGSELIVLTKAAQKFTVREVIDLTQGDKKHSVRTIDLLAGAYSLLVTHNDGRVSQWFDTLQNDKRTLTHIRDFKLASELKYLLPDSHRKGFYSFYTNGTLQSHYTTSEKLVLFKRAYKQAPAMAAMSNNERYLITWNDDSLKVAEVDNSYPEVSLSSLWQKVWYEGYPEPEFVWQSTSASDNFEAKFSLVPIAFGTIKAA | not soluble |
| MESELSGISNENQISFFGFSAGSFSDSIFNIYVDAWEEVCSNEFKNSLKKLTDKDRLCLLSFPFSDKTNEKAFKMMKRFCVTNIFRIPASVTLPECKKMLIASAKEHKSLKQVEKEFDEKLEKIRQLRIKLAKRHDELEAVNNAIEVLHVMEKSQEQLISQKRIVPDSPTRMSPV | not soluble |
